Consider one molecule from paper PMC9195047 (The Journal of Experimental Medicine, 2022).

Experiment [1] deals with CHIKV 181/25 structural proteins on infected Vero cells (Chikungunya virus, 181/25, UniProt Q88628, strain). Nature of the experiment: flow cytometry on cells. Background: A flow cytometer gives signals particle by particle.
The target in experiment [2] is VEEV TC-83 structural proteins (capsid-p62-6K-E1) displayed on Expi293F cells (Venezuelan equine encephalitis virus, …, UniProt P05674, strain). Nature of the experiment: flow cytometry on cells.

B1: hVEEV-63 (human anti-VEEV monoclonal antibody, IgG1) (antibody, V domains shown)
VH: QVQLVQSGAEVKKPGASVKVSCKSSGYTFTNYIIHWVRQAPGQRLEWMGWINAGNGNTKYSQKFQGRISVTRDTSASAAYMELSSLKSEDTALYYCATLQMDYGGNGDLDYWGQGTLVTVSS
VL: YELTQPPSVSVSPGQTARITCSGDALPKQYVYWYQQKPGQAPVLVIYKDSERPSGIPERFSGSSSGTTVTLTISGVQAEDDADYYCQAADSSNTEYVFGTGTKVTVL
With B1, the binding result in experiment [1] is on record as “no binding (tested: 10 µg/ml)”; in experiment [2], “binds”.
